Molecular target: T1, VEGFR1 (Flt1) on the membrane of HUVECs (human, UniProt P17948 27-1338)
T1 construct: whole, on cells; Endogenous receptor on HUVECs; also called fms-like tyrosine kinase-1
Assay: fluorescence imaging of HUVECs with dye-conjugated cage
Method: HUVECs were spread onto a 48-well plate at 4×10⁴ cells/well and then cultured overnight. The HUVECs were incubated with 50 ng/mL human recombinant rhVEGF₁₆₅ and dye-conjugated fusion protein cage at different concentrations for 15, 30 and 60 minutes at 37° C. The HUVECs were imaged in a […] (Zeiss, Oberkochen, Germany) using FITC.
A maleimide-modified fluorescent dye was conjugated at the thiol of HPC, and the conjugation of the fluorescent dye to the polypeptide was qualitatively identified by SDS-PAGE. The fluorescent dye-conjugated anti-Flt1-HPC4-EBPP[A₁G₄I₁]₆-PEDF 34-mer-EBPP[A₁G₄I₁]₆-HPC5 was visualized by exposure to UV light on SDS-PAGE without gel staining. In FIG. 5 (A) (b), the location of the dye-conjugated polypeptide is compared under UV light with that of a marker in a bright-field mode. The location corresponded to that of the fusion polypeptide on the copper-stained SDS-PAGE gel prior to the dye conjugation (FIG. 5 (A) (a)). The conjugation of the dye to anti-Flt1-HPC4-EBPP[A₁G₄I₁]₆-PEDF 34-mer-EBPP[A₁G₄I₁]₆-HPC5 was confirmed from the fluorescence spectrum. […] HUVECs were spread onto a […] plate and then cultured overnight. The HUVECs were incubated with 1 μM or 10 μM dye-conjugated polypeptide for 15, 30 or 60 minutes. […]

T1 sequence (P17948 27-1338): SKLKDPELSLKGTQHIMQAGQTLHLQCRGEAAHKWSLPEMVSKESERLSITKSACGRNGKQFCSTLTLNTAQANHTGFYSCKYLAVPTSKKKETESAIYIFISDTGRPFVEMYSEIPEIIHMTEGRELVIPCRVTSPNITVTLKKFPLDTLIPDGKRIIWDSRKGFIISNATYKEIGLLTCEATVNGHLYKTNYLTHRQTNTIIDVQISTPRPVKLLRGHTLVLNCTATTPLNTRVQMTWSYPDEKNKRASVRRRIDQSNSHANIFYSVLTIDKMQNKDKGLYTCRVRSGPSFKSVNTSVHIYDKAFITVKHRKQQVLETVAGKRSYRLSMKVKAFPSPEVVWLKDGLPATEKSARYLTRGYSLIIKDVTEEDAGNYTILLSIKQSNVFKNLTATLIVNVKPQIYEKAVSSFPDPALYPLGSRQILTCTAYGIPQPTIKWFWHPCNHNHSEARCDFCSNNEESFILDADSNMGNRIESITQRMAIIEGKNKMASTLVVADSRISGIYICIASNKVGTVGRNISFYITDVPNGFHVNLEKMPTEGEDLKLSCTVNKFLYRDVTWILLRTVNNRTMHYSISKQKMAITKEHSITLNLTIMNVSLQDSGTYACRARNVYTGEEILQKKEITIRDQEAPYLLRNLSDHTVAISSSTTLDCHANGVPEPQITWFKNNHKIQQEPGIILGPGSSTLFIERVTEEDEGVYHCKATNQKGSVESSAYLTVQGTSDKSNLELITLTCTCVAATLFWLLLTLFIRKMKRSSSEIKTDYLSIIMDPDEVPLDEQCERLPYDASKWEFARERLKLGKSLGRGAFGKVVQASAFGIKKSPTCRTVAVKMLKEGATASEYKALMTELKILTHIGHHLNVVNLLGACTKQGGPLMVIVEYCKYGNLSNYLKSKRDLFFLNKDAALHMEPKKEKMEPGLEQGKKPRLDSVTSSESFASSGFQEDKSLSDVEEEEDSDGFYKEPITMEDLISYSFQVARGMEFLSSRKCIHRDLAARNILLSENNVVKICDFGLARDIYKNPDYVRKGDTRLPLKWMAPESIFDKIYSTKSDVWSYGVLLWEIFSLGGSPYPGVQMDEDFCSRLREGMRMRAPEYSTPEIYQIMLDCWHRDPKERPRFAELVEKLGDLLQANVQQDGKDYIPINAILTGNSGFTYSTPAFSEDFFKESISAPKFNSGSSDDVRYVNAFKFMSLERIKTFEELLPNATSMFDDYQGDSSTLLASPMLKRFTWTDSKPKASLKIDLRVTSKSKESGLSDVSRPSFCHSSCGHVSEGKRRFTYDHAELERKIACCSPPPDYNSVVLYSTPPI

binding result: binds
B1: fluorescent dye-conjugated anti-Flt1-HPC4-EBPP[A1G4I1]6-PEDF 34-mer-EBPP[A1G4I1]6-HPC5 (designed binder)
chain: GNQWFISSQIRQNYSTDVEAAVNSLVNLYLQASYTYLSLGFYFDRDDVALEGVSHFFRELAEEKREGYERLLKMQNQRGGRALFQDIKKPAEDEWGKTPDAMKAAMALEKKLNQALLDLHALGSARTDPHLCDFLETHFLDEEVKLIKKMGDHLTNLHRLGGVPAGGVPAAGVPAGGVPAGGVPAIGVPAGGVPAGGVPAAGVPAGGVPAGGVPAIGVPAGGVPAGGVPAAGVPAGGVPAGGVPAIGVPAGGVPAGGVPAAGVPAGGVPAGGVPAIGVPAGGVPAGGVPAAGVPAGGVPAGGVPAIGVPAGGVPAGGVPAAGVPAGGVPAGGVPAIGVPAGGDPFFKVPVNKLAAAVSNFGYDLYRVRSSTSPTTNVPAGGVPAAGVPAGGVPAGGVPAIGVPAGGVPAGGVPAAGVPAGGVPAGGVPAIGVPAGGVPAGGVPAAGVPAGGVPAGGVPAIGVPAGGVPAGGVPAAGVPAGGVPAGGVPAIGVPAGGVPAGGVPAAGVPAGGVPAGGVPAIGVPAGGVPAGGVPAAGVPAGGVPAGGVPAIGVPAGGPEAGLGEYLFERLTLKHD
modifications: Alexa Fluor 488 C5 maleimide conjugated at cysteine (thiol of HPC) via thiol-maleimide reaction
notes: also called dye-conjugated fusion protein cage; dye-conjugated polypeptide

From US20220331453A1 (INDUSTRY UNIVERSITY COOPERATION FOUNDATION HANYANG …, published 2022)
